Experimental data published in paper PMC9106921 (Nature immunology, 2022).
No end group written: not given here.

Target: T1, recombinant cytoplasmic tail of CD4 (residues 421-458, C422S, C455S) (human, UniProt P01730 421-458, C422S | C455S)
T1 chain (looked up): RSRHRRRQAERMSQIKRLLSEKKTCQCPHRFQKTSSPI
Test: NMR titration

- pKa of the pH-dependent disruption of the complex: 4.55 ± 0.1
B1: recombinant Lck (residues 7-35), 15N-labelled (domain or fragment, human, UniProt P06239 7-35, looked up)
chain: SHPEDDWMENIDVCENCHYPIVPLDGKGT
modifications: cysteine pairing not given here; also: 15N isotope labelling
